In US20250346679A1 (INVOX PHARMA, published 2025):

How the values were obtained:
[1] = target: T1, cynomolgus PD-L1, cell-surface (cynomolgus); assay: flow cytometry on HEK.cPD-L1
T1 construct: also called HEK.cPD-L1; HEK.cyPD-L1
Method: Non-specific binding was also assessed by testing binding to HEK293 parental cells lacking human PD-L1 (Flp-In T-Rex 293 cell line, Life Technologies, R780-07).
(§1) HEK293, HEK.hPD-L1 and HEK.cPD-L1 suspensions were prepared in FACS buffer (DPBS (Gibco, 14190-094) containing 0.5% BSA (Sigma, A7906)) and seeded at 1×10⁵ cell/well in 100 μl in round bottomed 96-well plates (VWR, 734-1797). […] The washed cells were resuspended in the diluted antibody mixture, incubated at 4° C. for 30 minutes, and then washed once in FACS buffer. […] Dead cells were excluded and the fluorescence in the APC channel (638 nm 660/20) was measured. The geometric mean fluorescence intensity (GMFI) values were plotted vs the log concentration of antibody and the resulting curves were fitted using the log (agonist) vs response equation in GraphPad Prism.

[2] = target: T2, human CD137, cell-surface (human, UniProt Q07011 24-255); assay: flow cytometry on DO11.10.hCD137
T2 construct: over-expressed on DO11.10 or HEK cells or endogenous on primary T cells, as named under assay; also called DO11.10.hCD137; HEK.FRT.luc.hCD137
Method: Non-specific binding was also assessed by testing binding to DO11.10 cells lacking CD137 expression.
as §1, with “Briefly, DO11.10, DO11.10.hCD137 or DO11.10.cCD137” for “HEK293, HEK.hPD-L1 and HEK.cPD-L1”, “(DPBS containing” for “(DPBS”

[3] = target: T3, human PD-L1, cell-surface (human, UniProt Q9NZQ7 19-290); assay: flow cytometry on activated primary human CD4+ T cells (carry PD-L1 and CD137); activated primary human CD4+ T cells (carry PD-L1 and little CD137)
T3 construct: also called HEK.hPD-L1; PD-L1 on MDA-MB-231, on Promega PD-L1 cells, on primary human cells
T3 sequence (Q9NZQ7 19-290): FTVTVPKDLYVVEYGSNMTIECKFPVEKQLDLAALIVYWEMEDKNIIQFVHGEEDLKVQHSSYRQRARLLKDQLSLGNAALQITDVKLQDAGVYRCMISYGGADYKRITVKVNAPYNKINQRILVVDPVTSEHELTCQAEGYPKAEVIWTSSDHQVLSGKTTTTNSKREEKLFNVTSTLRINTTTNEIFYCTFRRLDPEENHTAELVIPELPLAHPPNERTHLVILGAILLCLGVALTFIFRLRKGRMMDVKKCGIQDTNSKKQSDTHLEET
Method: CD137 is rapidly expressed to high levels on activated CD8⁺ T cells and also on activated CD4⁺ T cells with lower levels (Xue-Zhong Yu et al, 2013), therefore Pan T cells were stimulated for 24 hours using Dynabeads™ Human T-Activator CD3/CD28 beads (Thermo, 11132D) according to manufacturer's instructions.
Dead cells were excluded and the fluorescence in the APC channel (638 nm 660/20) was measured to show test antibody binding. The geometric Mean Fluorescence Intensity (GMFI) values were plotted vs the log concentration of antibody and the resulting curves were fitted using the log (agonist) vs response equation in GraphPad Prism.

T1 sequence (chain, as listed by the source limits assumed): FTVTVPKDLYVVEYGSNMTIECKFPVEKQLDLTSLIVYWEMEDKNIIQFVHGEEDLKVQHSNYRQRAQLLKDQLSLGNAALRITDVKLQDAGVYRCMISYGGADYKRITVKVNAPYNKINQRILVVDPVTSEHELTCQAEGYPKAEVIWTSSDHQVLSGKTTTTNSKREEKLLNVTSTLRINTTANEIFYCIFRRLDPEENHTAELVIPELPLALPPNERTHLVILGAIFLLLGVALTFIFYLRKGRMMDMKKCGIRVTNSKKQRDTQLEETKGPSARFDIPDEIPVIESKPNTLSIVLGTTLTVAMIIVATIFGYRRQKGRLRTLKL

B1: FS22-172-003-AA/E12v2 (bispecific antibody, human IgG1, kappa, L234A L235A)
heavy: EVQLVQSGAEVKRPGASVKVSCKASGYPFTSYGISWVRQAPGQGLEWMGWISAYSGGTNYAQKLQGRVTMTTDTSTSTAYMELRSLRSDDTAVYYCARDLFPTIFGVSYYYYWGQGTLVTVSSASTKGPSVFPLAPSSKSTSGGTAALGCLVKDYFPEPVTVSWNSGALTSGVHTFPAVLQSSGLYSLSSVVTVPSSSLGTQTYICNVNHKPSNTKVDKKVEPKSCDKTHTCPPCPAPEAAGGPSVFLFPPKPKDTLMISRTPEVTCVVVDVSHEDPEVKFNWYVDGVEVHNAKTKPREEQYNSTYRVVSVLTVLHQDWLNGKEYKCKVSNKALPAPIEKTISKAKGQPREPQVYTLPPSRDELPYIIPPYNQVSLTCLVKGFYPSDIAVEWESNGQPENNYKTTPPVLDSDGSFFLYSKLTVGADRWLEGNVFSCSVMHEALHNHYTQKSLSLSPG
light: DIQMTQSPSTLSASVRDRVIITCRASQSIGNRLAWYQHKPGKAPKLLIYEASTSETGVPSRFSGSGSGTDFTLTISSLQPEDFATYYCQQSYSTPYTFGQGTKLEIKRTVAAPSVFIFPPSDEQLKSGTASVVCLLNNFYPREAKVQWKVDNALQSGNSQESVTEQDSKDSTYSLSSTLTLSKADYEKHKVYACEVTHQGLSSPVTKSFNRGEC
notes: PD-L1 site in the Fab, CD137 site in the CH3, LALA; also called anti-human CD137/PD-L1 mAb^2
Q: Which EC50 [1] does the source give for B1 here?
A: 0.7 nM

Q: What about the EC50 [2] of the same binder?
A: 6.2 nM

Q: And the EC50 [3]?
A: 0.8 nM
